Source: US20200339680A1 (Alector, published 2020)

How the values were obtained:
[1] = biological target: T1, human TMEM106B (human, UniProt Q9NUM4 2-274); experiment: FACS A549 10 ug/ml
T1 construct: full-length, transiently expressed on HEK293 cells, or natively expressed on HeLa, U251 and A549 cells (the cell is named under assay); also the source of the Pepscan peptides; also called huTMEM106B; huTMEM
Procedure: (§1) Purified anti-TMEM106B antibodies were evaluated for their binding affinity to various TMEM106B-expressing cell lines including HEK293 transiently transfected with human/cyno/mouse TMEM106B, as well as HeLa cells and A549 cells. Antibodies tested for this experiment were mouse IgGs purified from hybridoma supernatant. Affinity binding to cells was determined as follows. Briefly, 1×10\hat{ }5 cells were aliquoted per well in 96-well round bottom plates and incubated with 50 μL of purified anti-TMEM106B antibody at various concentrations (10× dilutions starting at 10 μg/ml) in FACS buffer (PBS+2% FBS+1 mM EDTA). […] Sorting was performed on a iQue (Intellicyt), with sort gates drawn to exclude dead (propidium iodide+) cells. Binding data was analyzed using median fluorescent intensity (MFI) and graphed in Prism. Values presented are MFI.

[2] = biological target: T2, mouse TMEM106B (mouse, UniProt Q80X71 2-275); experiment: FACS Neuro2a;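 note: flow cytometry of antibody binding to cells: hybridoma supernatant or purified antibody at 10 µg/ml, 1 h on ice, secondary detection, propidium iodide–positive dead cells gated out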
T2 construct: transiently expressed on HEK293 cells, or native on mouse Neuro2a cells; also called moTMEM106B; murine TMEM106B
Procedure: (§2) All cells were cultured in either T75 or T150 flasks. […] The enzyme was quenched by addition of fresh media, and the cells were then distributed into 96-well plates for FACS analysis.
(§3) FACS analysis was performed as follows. Each cell type was aliquoted in 96-well round bottom plates (2×10^5 cells per well), washed once with FACS buffer (PBS+2% FBS+1 mM EDTA), and incubated with 50 μL of hybridoma supernatant or purified antibody (10 μg/ml in FACS buffer) on ice for 1 hour. […] Following this secondary incubation, the cells were again washed 2× with ice-cold FACS buffer and resuspended in a final volume of 50 μL of FACS buffer+0.25 μl/well propidium iodide (Fisher Scientific #4BDB556463). Analysis was performed on a FACSCanto system (BD Biosciences) or iQue (Intellicyt), with sort gates drawn to exclude dead (i.e., propidium iodide positive) cells.

[3] = biological target: T1, human TMEM106B; experiment: FACS U251
[4] = biological target: T1, human TMEM106B; experiment: FACS HeLa
Procedure: as §2, §3

[5] = biological target: T1, human TMEM106B; experiment: FACS A549 1 ug/ml
Procedure: as §1

[6] = biological target: T1, human TMEM106B; experiment: FACS HEK+huTMEM 0.1 ug/ml (2nd column so headed);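 note: flow cytometry binding of purified anti-TMEM106B mouse IgG to HEK293 cells transiently transfected with TMEM106B, read as median fluorescence intensity on live (propidium iodide-negative) cells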
Procedure: as §1

[7] = biological target: T1, human TMEM106B; experiment: FACS HEK+huTMEM 1.0 ug/ml;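 note: binding of purified mouse IgG antibodies to HEK293 cells transiently expressing human TMEM106B, read by flow cytometry as median fluorescence intensity of live, propidium iodide-negative cells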
Procedure: as §1

[8] = biological target: T1, human TMEM106B; experiment: FACS HEK+huTMEM 10 ug/ml;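 note: flow cytometric binding of purified mouse IgG antibodies to HEK293 cells transiently expressing human TMEM106B, read as median fluorescence intensity on live cells with propidium iodide-positive cells excluded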
[9] = biological target: T1, human TMEM106B; experiment: FACS A549;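 note: flow cytometry of cells incubated on ice for 1 h with hybridoma supernatant or purified antibody at 10 µg/mL, dead propidium iodide-positive cells gated out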
Procedure: as §2, §3

[10] = biological target: T1, human TMEM106B; experiment: FACS HEK+huTMEM 0.1 ug/ml;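 note: flow cytometry binding of purified mouse IgG antibodies to HEK293 cells transiently expressing TMEM106B, read as median fluorescence intensity on live cells (propidium iodide negative gating)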
Procedure: as §1

[11] = biological target: T3, GST Fusion human TMEM106B ECD (Truncated) (human); experiment: SPR array; SPR kinetics, Table 5, first of two listed runs
T3 construct: also called GST-TMEM106B-truncated protein; GST-TMEM106B (truncated)
Procedure: (§4) Binding kinetic characterization of the purified antibodies was performed by Carterra using a proprietary array SPR instrument (MX-96) as follows. Briefly, antibodies were prepared by diluting to 5 μg/ml in 10 mM Acetate, pH 4.5 (Carterra), at 150 μL/well and then made an additional dilution at 1:10 from there by titrating 11 μL into 100 μL. […] The chip was activated with 18 mM EDC (Sigma Bioxtra) and 4.5 mM S—NHS (Thermo Fisher) diluted in 100 mM MES, pH 5.5, for 7 minutes, and then antibodies were coupled for 10 minutes at 45 μL/minute. After coupling, the chip was returned to the MX-96 and quenched for 7 minutes using 1 M Ethanolamine pH 8.5 (Carterra).
(§5) Printed antibodies were profiled for their ability to bind GST-TMEM106B (truncated) protein (described above). Briefly, GST-TMEM106B (truncated) antigen was diluted to 18 μg/ml (500 nM of 36 kDa fusion protein) by mixing 2.7 μL of 2.0 mg/ml antigen into 298 μL Running buffer (HBS-EP+, Teknova with 1 mg/ml BSA, Sigma), and titrated 50 μl into 200 μl for 5-fold serial dilutions. […] Duplicate measurements for each anti-TMEM106B antibody were taken to ensure reproducibility.

[12] = biological target: T3, GST Fusion human TMEM106B ECD …; experiment: SPR array; SPR kinetics, Table 5, second of two listed runs (KD 2.90E-08 M)
Procedure: as §4, §5

[13] = biological target: T3, GST Fusion human TMEM106B ECD …; experiment: SPR array
Procedure: as §4, §5

[14] = biological target: T3, GST Fusion human TMEM106B ECD …; experiment: SPR array; SPR kinetics, Table 5, first of two listed runs; weak binder
Procedure: as §4, §5

[15] = biological target: T3, GST Fusion human TMEM106B ECD …; experiment: SPR array; SPR kinetics, Table 5, first of two listed runs (KD 4.70E-07 M)
Procedure: as §4, §5

[16] = biological target: T3, GST Fusion human TMEM106B ECD …; experiment: SPR array; SPR kinetics, Table 5, second of two listed runs
Procedure: as §4
Printed antibodies were profiled for their ability to bind GST-TMEM106B (truncated) protein (described above). Briefly, GST-TMEM106B (truncated) antigen was diluted to 18 μg/ml (500 nM of 36 kDa fusion protein) by mixing 2.7 μL of 2.0 mg/ml antigen into 298 μL Running buffer (HBS-EP+, Teknova with 1 mg/ml BSA, Sigma), and titrated 50 μl into 200 μl for 5-fold serial dilutions. In addition, binding to GST (Pierce) was assayed under the same conditions to determine the extent of any non-specific binding of the anti-TMEM106B antibodies to GST portion of the TMEM106B-GST fusion protein. Duplicate measurements for each anti-TMEM106B antibody were taken to ensure reproducibility.

B1: TM-50 (antibody, V domains shown)
VH: QVQLKESGPVLVAPSQSLSITCTVSGFSLTNYGVHWVRQPPGKGLEWLGVIWAGGNTNYNSALMSRLSISKDNSKSQVFLKMNSLQTDDTAMYYCAKEAKLLRSYAMDYWGQGTLVTVSA
VL: DVQMTQTTSSLSASLGDRVTISCRASQDINNYLYWYQQKPDGTVKLLIYYTSMLHSGVPSRFSGSGSGTDYSLTISNLEQEDIATYFCQQGSTLMYTFGGGTKLEIK
notes: mouse IgG (hybridoma)
[1]
  MFI: 445 MFI
[2]
  MFI: 257 MFI
[3]
  MFI: 260 MFI
[4]
  MFI: 159 MFI
[5]
  MFI: 381 MFI
[6]
  MFI: 294 MFI
[7]
  MFI: 314 MFI
[8]
  MFI: 396 MFI
[9]
  MFI: 580 MFI
[10]
  MFI: 305 MFI

B2: TM-16 (antibody, V domains shown)
VH: EVQLQQSGAELVRPGASVKLSCTTSGFNIKDYYMHWVKQRTEQGLEWIGRIDPEDGETKYAPEFQGKATITSDTSSNTAFLQLSSLTSEDTAVYYCASSQPFTYWGQGTLVTVSA
VL: QIVLTQSPAIMSASPGEKLTMTCSASSSLNYMYWYQQKPGSSPRLLIYDTSNLASGVPVRFSGSGSGTSYSLTISRMEAEDGATYYCQQWTSFPPTFGAGTKLELK
[1]
  MFI: 557 MFI
[11]
  koff: 0.0031 s⁻¹
[2]
  MFI: 392 MFI
[3]
  MFI: 292 MFI
[4]
  MFI: 548 MFI
[12]
  kon: 33000 M⁻¹ s⁻¹
[5]
  MFI: 409 MFI
[13]
  Kd: 29 nM
[14]
  Kd: 470 nM
[15]
  kon: 6500 M⁻¹ s⁻¹
[6]
  MFI: 351 MFI
[16]
  koff: 0.00095 s⁻¹
[7]
  MFI: 2140 MFI
[8]
  MFI: 5980 MFI
[9]
  MFI: 605 MFI
[10]
  MFI: 680 MFI

B3: TM-49 (antibody, V domains shown)
VH: QVQLQQPGAELVRPGSSVKLSCKASGYTFTRFWMHWVKQRPIQGLEWIGNIDPSDSQTHYNQKFKDKATLTVDKSSSTAYMQLSSLTSEDSAVYYCARLITVDYAMDYWGQGTSVTVSS
VL: QIVLTQSPAIMSASPGEKVTISCSASSSVSYMYWYQQKPGSSPKPWIHRTSNLASGVPVRFSGSGSGTSYSLTISSMEAEDAATYYCQQYHSYPPTFGAGTKLELK
notes: mouse IgG (hybridoma)
[1]
  MFI: 613 MFI
[2]
  MFI: 291 MFI
[3]
  MFI: 434 MFI
[4]
  MFI: 187 MFI
[5]
  MFI: 473 MFI
[6]
  MFI: 756 MFI
[7]
  MFI: 15700 MFI
[8]
  MFI: 16500 MFI
[9]
  MFI: 924 MFI
[10]
  MFI: 3030 MFI

B4: TM-52 (antibody, V domains shown)
VH: QVQLQQPGAELVKPGASVKLSCKASGYTFTNYWMHWVKQRPGQGLDWIGNIDPSDSETHYNQKFKDKATLTVDKVSSTAYMQLSSLTSEDSAVYYCARRGYYGRSPFAYWGQGTLVTVSA
VL: ENVLTQSPAIMSASPGEKVTMTCSASSSVSYMHWYQQKSNTSPKLWIYDTSKLASGVPGRFSGSGSGNSYSLTISSAEAEDVATYYCFQGSGYPLTFGAGTKLELK
notes: mouse IgG (hybridoma)
[1]
  MFI: 443 MFI
[2]
  MFI: 210 MFI
[3]
  MFI: 341 MFI
[4]
  MFI: 227 MFI
[5]
  MFI: 401 MFI
[6]
  MFI: 451 MFI
[7]
  MFI: 8200 MFI
[8]
  MFI: 7020 MFI
[9]
  MFI: 987 MFI
[10]
  MFI: 1940 MFI
